{
  "source": "the DeepSol protein solubility set",
  "data": [
    {"experiment": "soluble on expression in E. coli; label from the status in PepcDB or PDB records", "values": [
      {"sequence": "SLPHIITRKVISVEQNWLQQLANAISDPLQLLQQLEIDPSPWQDGFEARKLFAQRVPQSFVDRMQKGNPADPLLRQVLPLSAEFEIHPGYSHDPLDEQNNTVPGLLHKYKNRCLLIVKGGCAINCRYCFRRHFPYEDNKGGKSAWQQSLDYIAQNPQLNEVIFSGGDPLMAKDHEIAWLMERIAAIPHIKRLRIHSRLPVVIPARITDELVELFAQTRLQVLLVTHINHANEINLELKQQMARLRAVNVTLLNQGVLLKGVNDTVDAQVSLSETLFDAGILPYYLHVLDKVQGAAHFYVSDDKARQIMAGLIEQVSGYLVPKLTREIGGRPSKTPLDLHLE", "soluble on expression in E. coli": "not soluble"},
      {"sequence": "MSAPAAGATAGGDDAADRNVEMWKIKRLIKSLELARGNGTSMISLIIPPKDQVARIQRMLAEEYGTASNIKSRVNRLSVLGAITSVQGRLKLYNKVPPNGLVVYCGTIMTDEGKEKKVNIDFEPFKAINTSLYLCDNKFHTEALQGLLADDNKFGFIIMDGNGCLFGTLQGNTREVLHKFTVDLPKKHGRGGQSAVRFARLRNEKRHNYVRKVAENSVEQFIKNDKVTVAGLILAGSADFKTELGQSDMFDQRLQAKMIKTVDIAYGGENGFNQAIELAADTLASVKFIQEKKLIGGYFDEISQDTGKYVFGVKDTLAALEMGAIETLICWENLDIVRYKMKNSLGEDILLNLRPDEEKDKSHFTDSETGQDMEIIETMPLLEWFANNYKNFGAALEIVTDKSQEGAQFVRGFGGIGGLLRYRVDLAHVDLEDELDNIDLDDY", "soluble on expression in E. coli": "not soluble"},
      {"sequence": "MSLYKAYLIDLDGTMYRGAEVIPEAIIFIENLKRAGLPYLFVTNNSTKTPGQVAEHLTDMGIQAVSDDVFTTSQATVQFMMEQKREKTVYVIGERGIKQELTDNGFEITSSNPAFVVVGLDREVDYEKFSKAALAVRGGAMFISTNGDAAIPTERGLLPGNGSITSVVSVATETAPIFIGKPESIIMEQALAKLGVHKDEAIMVGDNYETDIMAGINYGMDTLIVHTGFTSKEALLTKEIQPTYAVTKLTDWEFNEGHHHHHH", "soluble on expression in E. coli": "not soluble"},
      {"sequence": "MGSDKIHHHHHHMRSSSKCSSVRFQFFVVELFMTTTQSAGEITGNVLFYNAPEPLNREQHAKLALVHKDKPYAFAAAGTAVPLTVSEFAPAALTFPVIFAGDDRVPLAVMGLNQQENLFIGADGSIEANVYIPAYIRRYPFVLANDDTQDRLIVCIDRGSDLLSEQGQTPLFDAKGEPTEYTQNCIKFCDDFEVERRRTDSFVQILKDNDLFELKKATFQPTDEVGAPVGEPVTVAEYFGVSEEKLNGLSAEKLKELQENGALAQIYAHLVSLLGWDRLINKTMMKQAEAANLN", "soluble on expression in E. coli": "not soluble"},
      {"sequence": "MKIISEGETKLMVPEESTLSKKDTVFYNPVMETNRDISVSVVQSFLDDFKRDEFLMCDPLGGSGARGIRYAKELKFNGDLKVSIGDINPSAVKMIKENLKLNELENVEVFHEDANVLLSKNFKVFNVVDLDPFGSPVPYLDSGIRASLTKGGLLCMTATDTAVLCGAYRKTCIRKYNAVPLKGDKELAVRLMIGYAVKMASKYDIGLKPIFSHVTDHYARTFMVTERGAGKADSAIENLGYIRQDSEQKSFKTFEEGSEKGYAGPFYLGEISDKNIVQNALNTAKTRNYSKRAVNILEMISRESEINQVGCFDIHELCSFIKKLVPPVNDIMENLKENGFKVTRVHYNPYGLKTDAELSDLVVLISEYHSKKYLEHHHHHH", "soluble on expression in E. coli": "not soluble"},
      {"sequence": "SPINPYKDHMSVLKAYYAMNMEPNSDELLKISIAVGLPQEFVKEWFEQRKVYQYSNSR", "soluble on expression in E. coli": "soluble"},
      {"sequence": "SLWASADAIQQKLADLEKRSGGRLGVALINTADDSQTLYRGDERFAMCSTGKVMAAAAVLKQSESNPEVVNKRLEIKKSDLVVWSPITEKHLQSGMTLAELSAAALQYSDNTAMNKMISYLGGPEKVTAFAQSIGDVTFRLDRTEPALNSAIPGDKRDTTTPLAMAESLRKLTLGNALGEQQRAQLVTWLKGNTTGGQSIRAGLPASWAVGDKTGAGDYGTTNDIAVIWPENHAPLVLVTYFTQPQQDAKSRKEVLAAAAKIVTEGL", "soluble on expression in E. coli": "soluble"},
      {"sequence": "MIGRKEKERERPYYRDPDDPEYIKDLQRPAVIKEDLSEMERRKRVQQILESKSFCHELEEVIRQECDTARTDPDHLQVLQKLSDLTVPQGNMSFGNLHTYGGNTIAIADLRGNEKYSKAERIQRNKLACLFRLADLFQWSQGIHNEISYRTNDEDNTFLMNPFGLLYHEITAATIVKIDENGKILDCGTLKAGVNQPAFLLHSAIYKAHPMVRCILHMHTAIVAAVASMKCGLLPLCKEAMVLGPVGYHDYQDIGDDDIQFDEIIANLGDKNVLFLRNQGFLVVGDTIEHATFLANNTVIACETQVRAARAGLDNLIIPEEKAIQRAFRNSRNTNSLKRNGTVDWRVGELEWESWMRVLDHANFQTGHVYRQPQLRPKSAMSTSMVNNNDVAVPPTTSAYGQIDETNLESVSAHRLALLRKEQERVRWMNSPNAYQKVEFLEYGADNPKKITKWVHDVNVPSASGTPVKISSVHQFSPASSNPKEFKEKQKAIKENNRLGTLSAGPQSQILDSVTYEDIALLIKPDNDGTVGQSSTADRAILIGTASKGIIDRQFQHHAQVYHQIYAPNPFSVETDADIKKYVDMVKAKNSQSAPVSARSGYSQYDEVEADTVSLMQGVREHKLSQAALSASDDGLNAGISPNNVRTSEESVNTSYMSQSVVFDYPDILRPIYRQETYV", "soluble on expression in E. coli": "not soluble"},
      {"sequence": "MGSDKIHHHHHHMAGVSPLSNRWSKQVLSNFEQAASTYNSQAQLQRAVAWRLARQCARQHIPAGFWVDLGSGTGLMADALEACNPHQAVLRVDGCHEMLKHHHHSSQTLLWDLNLGVPSWPQLPSLLASSFALHWLINPLERLHEWMAALTPEGWLALALPVEGSFPQWHQAAATAGVSCTALPFPSQASLLDVLSSNNIRHQQLHQFTQQSPEVFQLLKPMRQIGAQASPCSTMGVGNWRHLKQAWPRCQNSGDAQLTWLIQLLLIQR", "soluble on expression in E. coli": "not soluble"},
      {"sequence": "MGSDKIHHHHHHMLKRLLDYNEGEEFDLVLMVKNSELRQDKRGKHYLLMQLADSSGSIRANYWQAKAEDASRFNAGTVVEASGMIEDYHNHDQIKLFSIHPVSPDDQADLSQLVATAPEKPAEMEKEIKDFVAQIDNKNWHDLVDFLLKKWSSRFFAYPAGKSNHHAYKGGLAFHTLTMLKDARGLADNYPAVNRSLLYAGCILHDMGKVLELSGPVATQYTAEGNLVGHLVLIDEQLMLAAQELKIDLASEDLLLLRHMVLSHHGRYEYGSPKLPALLEAELLHRIDDLDAAVNAITTVNCPRPSRGNSPRR", "soluble on expression in E. coli": "not soluble"},
      {"sequence": "MSDKDDLIVAGVNQKDKGIWRDFYDRYYAALCSYVEKILFLTDAVEDLVQEVFISVWEGKRTFSDSRELTNYLYRACYNNALLYIRNHQIHDSILNGLPQEEDFEDEEMLYALTVKEEAIRQLYFYIEELPAEQRRIILLRIEGHSWDEIASRLGVSINTVKTQKSRSYKFLREKLANSSYSVLLALIFY", "soluble on expression in E. coli": "not soluble"},
      {"sequence": "MGSDKIHHHHHHMRKLAHNFYKPLAIGAPEPIRELPVRPERVVHFFPPHVEKIRARIPEVAKQVDVLCGNLEDAIPMDAKEAARNGFIEVVKATDFGDTALWVRVNALNSPWVLDDIAEIVAAVGNKLDVIMIPKVEGPWDIHFVDQYLALLEARHQIKKPILIHALLETAQGMVNLEEIAGASPRMHGFSLGPADLAASRGMKTTRVGGGHPFYGVLADPQEGQAERPFYQQDLWHYTIARMVDVAVAHGLRAFYGPFGDIKDEAACEAQFRNAFLLGCTGAWSLAPNQIPIAKRVFSPDVNEVLFAKRILEAMPDGSGVAMIDGKMQDDATWKQAKVIVDLARMIAKKDPDLAQAYGL", "soluble on expression in E. coli": "not soluble"},
      {"sequence": "MRIEVRLFALYREQAGTDRLALELPEGARVREAQKALEERFPRLRLEGGMAAVNQALAGAETPLKEGDEVAFLPPVSGGQDSYGLTQEPLDLEALVAWATAPEYGAVVSFLGTTRSPNRGEEVAFLEYEAYPEMAEKVMAEILAEMRARWPLGRIALWHRLGRVDPGEASIAIVVSARHRKEAFAACQYAIDRVKQILPVWKKEHRKDGSFWVEGFAPEDKRL", "soluble on expression in E. coli": "soluble"},
      {"sequence": "LTVSARDAPTKISTLAVKVHGGSRYATKDGVAHLLNRFNFQNTNTRSALKLVRESELLGGTFKSTLDREYITLKATFLKDDLPYYVNALADVLYKTAFKPHELTESVLPAARYDYAVAEQCPVKSAEDQLYAITFRKGLGNPLLYDGVERVSLQDIKDFADKVYTKENLEVSGENVVEADLKRFVDESLLSTLPAGKSLVSKSEPKFFLGEENRVRFIGDSVAAIGIPVNKASLAQYEVLANYLTSALSELSGLISSAKLDKFTDGGLFTLFVRDQDSAVVSSNIKKIVADLKKGKDLSPAINYTKLKNAVQNESVSSPIELNFDAVKDFKLGKFNYVAVGDVSNLPYLDEL", "soluble on expression in E. coli": "soluble"},
      {"sequence": "MDSLKGMAIFATVVDKGSMAAAAQSLGMTPSAVSQQIRKLESRAQVTLLHRTTRRLTLTEAGEAFYRSCAQMLAIAEEAERRLGEWRDAPVGELRLAAPVGFSGTLITQALKPLLENHRQLRLQLFFQDERIDLVAERIDLAIRVGNLADSSLVARHLGDWSSVLCAAPAYLRQRAPINRPEQLTEVDWISLNTSNHLNHLTLSGPGGEVCKLRLEPRVAANGMLAVRQFTLDGLGVSYQPLPEVRDALNDGRLQQLLPEWRIPGLGIYAVTPRREAQPAKVKVAIEALRRAFATDGDERWS", "soluble on expression in E. coli": "not soluble"},
      {"sequence": "MKKKIGLLVMAYGTPYKEEDIERYYTHIRRGRKPSPEMLEDLTERYRAIGGISPLATITLEQAKKLEKRLNEVQDEVEYHMYLGLKHIEPFIEDAVKEMHNDGIQDAIALVLAPHYSTFSVKSYVGRAQEEAEKLGNLTIHGIDSWYKEPKFIQYWVDAVKSIYSGMSDAEREKAVLIVSAHSLPEKIIAMGDPYPDQLNETADYIARGAEVANYAVGWQSAGNTPDPWIGPDVQDLTRELNEKYGYTSFVYAPVGFVAEHLEVLYDNDFECKVVTDEIGAKYYRPEMPNASDAFIDCLTDVVVKKKESVM", "soluble on expression in E. coli": "soluble"},
      {"sequence": "SVHKPSGQIMAVKRIRSTVDEKEQKQLLMDLDVVMRSSDCPYIVQFYGALFREGDCWICMELMSTSFDKFYKYVYSVLDDVIPEEILGKITLATVKALNHLKENLKIIHRDIKPSNILLDRSGNIKLCDFGISGQLVDSIAKTRDAGCRPYMAPERIDPSASRQGYDVRSDVWSLGITLYELATGRFPYPKWNSVFDQLTQVVKGDPPQLSNSEEREFSPSFINFVNLCLTKDESKRPKYKELLKHPFILMYEERTVEVACYVCKILDQMPATPSSPMYVD", "soluble on expression in E. coli": "soluble"},
      {"sequence": "MSLKKDTSEQSVEQSEVGLSLEELIRRGARDLIERAIEVEVQQLLAEYENVRMLGGSRAVVRNGYLPAREVLTAVGNVEVRVPKVRDRSGAGVKFNSALVPPYVRRSARVSAALPWLYLKGISTGDMREALTVLLGDEAKGLSPNVVSRLKTEWASDYAGWMKRDLSGSRYVYWWADGVHTSLRGEDDARQCLLVVIGVRLDGTKELVTVGDGHRESKASWLELLRDLKARGLEVGPRLAVGDGALGFWGALDELYPETRRQRCWVHKSANVLNALNALPKSLQAKAKAQLHEIWMAPTRAAAVSAFERFVECYQAKYPKAADKLVRDRDALLAFYDFPAEHWIHLRTTNPIESTFATVRHRTTRTKNCVSRSSFLGLAFKLVQEAEKSWRRIRGVERIAELMGGVVFKDGEPVKDEGHHHHHH", "soluble on expression in E. coli": "soluble"},
      {"sequence": "MGSDKIHHHHHHMSIFVKTFGGTRVIKDNDIVSARDWPSQKAFALFRYLIFRRNEEVSVEEIYNLFWEDMDDTFAKSNLNTTLHIIRKTTGITSEELFVKGDLCCFFPGGEITIDADIFEECHRNLMKATSDAEREKLLKRMFEIYTGPFLVEDIFAEWVQEIREIYESWYSDVLKELFKLYLSKKDYDAALEMVNAYFQREPYDEDMYYRAIEVLLKKGDITRAKRVYDKLSSHLMEIGIKPRLKFDDFLSKRDSEFMLNGNKAVVVDEKLFERFLFLESRRREKSFVLVEVKLTDKSISTEDVSQRVASQLRKGDVITFSGETIRILFHCPEQRRPTMEKRVVDALEKVGVKKGQYEIS", "soluble on expression in E. coli": "not soluble"}
    ]}
  ]
}
